{
  "source": "patent US20220390449A1",
  "about": "“NEW S[…] FOR THE LATENT FORM OF TOXOPLASMOSIS” (INSERM (INSTITUT NATIONAL DE LA SANTÉ ET DE LA RECHERCHE …, priority 2019, published 2022)",
  "key": {"BCLA positive sera": {"tested_on": "BCLA positive sera", "assay": "Epitope mapping of BCLA repeat and rBCLA (dot blot peptide assay)", "type": "binding", "conditions": "59 peptides of 15 aa covering res 1089-1275; human sera 1/400", "from_the_text": "Epitope mapping of BCLA repeat and rBCLA. Dot blot peptide assays were custom synthetized by JPT Peptide technologies on cellulose membranes with N-Acetyl moieties on the N-terminus. Two sets of membranes were screened: 1) covering the rBCLA region (res 1089-1275) with a total of 59 peptides, each 15 aa long with an overlap of 12 and an offset of 3; 2) covering repeat 4 (res 446-493) with a total of 18 peptides, each 15 aa long with an overlap of 12 and an offset of 3. Dot blot assays were performed as described by the manufacturer. Briefly, the membranes were first activated 5 min in 100% ethanol then washed 3 times 3 min in DPBS-tween. Blocked O.N at 4° C. in DPBS-Tween 0.5% powdered milk then washed again 3*3 min in DPBS-tween. Tested sera were diluted to 1/400 in DPBS-tween 0.1% BSA and incubated for 3 h at RT with the membrane. Following a 3*3 min DPBS-tween wash, membranes were incubated with anti-IgG peroxidase coupled Ab (Sigma A0170) diluted to 1/100 000 for 2 h at RT. […] Dot intensity was integrated using ImageJ. […]. For data analysis of independent dot blots, integrated intensities from every peptide dot [I(p)] were normalised into enrichment factors Fe(p) using the baseline integrated intensity of peptide 59[I(p=59)] which never reacts with any sera. The following can be expressed with the following equation: […]\nIn order to increase the reactivity score over several independent positive sera blots symbolised as (+), Fe(p) enrichment scores were summed with each other and to subtract the non-specific reactivity, the same sum was performed on the same number of negative sera peptides, symbolised as (−) and subtracted. Peptide reactivity scores can be expressed though the following equation:\nRs(p)=[Σ(Fe(p))^(+)−Σ(Fe(p))^(−)]"}, "[1]": {"target": "T1, His rBCLA (HisTag-rBCLA: C-terminal domain of BCLA, res 1089-1275, with a TEV cleavable N-terminal His-tag) (Toxoplasma gondii)", "T1 construct": "also called Cter-BCLA; recombinant rBCLA", "T1 chain": "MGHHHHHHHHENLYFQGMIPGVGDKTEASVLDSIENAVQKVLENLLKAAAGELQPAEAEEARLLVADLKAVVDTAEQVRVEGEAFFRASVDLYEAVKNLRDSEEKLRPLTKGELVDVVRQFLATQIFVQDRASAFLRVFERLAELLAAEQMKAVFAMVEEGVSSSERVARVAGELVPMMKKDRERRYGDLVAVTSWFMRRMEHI", "assay": "ELISA, periplasmic extract on coated His rBCLA"}, "His rBCLA": {"target": "His rBCLA", "assay": "ELISA binding of purified VHH to immobilized His rBCLA", "parameters": "species or system Toxoplasma gondii", "conditions": "200 ng/well antigen, serial dilution of VHH", "method": "The binding of purified VHH to immobilized His rBCLA was analyzed by ELISA. A MaxiSorp plate was coated with 200 ng/well antigen overnight at 4° C. in PBS. After blocking the wells with 4% MPBS, a serial dilution of the VHH was added to the coated wells and incubated for 1 hour at room temperature. After washing unbound VHH, bound VHH were detected using a mouse-anti-flag (clone M2) and donkey-anti-mouse coupled to HRP. Binding was quantified by measuring colorimetric reaction of OPD+H2O2 at 490 nm. ERB-1G6, ERB-1B11 and ERB-1A12 show a subnanomolar apparent affinity to immobilized His rBCLA. ERB-1F1 and ERB-1F2 show a low nanomolar affinity. ERB-1H4 and ERB-1D7 show a […] apparent affinity to His rBCLA."}, "[2]": {"target": "T1, His rBCLA (HisTag-rBCLA: C-terminal …)", "assay": "ELISA, serial dilution of purified VHH on coated His rBCLA (200 ng/well), anti-flag detection"}, "[3]": {"target": "T1, His rBCLA (HisTag-rBCLA: C-terminal …)", "assay": "phage display selection on His rBCLA and ELISA, as retold in the description"}, "[4]": {"target": "T1, His rBCLA (HisTag-rBCLA: C-terminal …)", "assay": "ELISA on coated His rBCLA (conclusion of Example 2)"}},
  "note": "Entries after “also recorded” stand apart in the source; their conditions may differ.",
  "data": [
    {"molecule": "EGEAFFRASVDLYEA (Synthetic peptide 22 of rBCLA)", "values": [
      {"measurement": "peptide reactivity (total reactivity score), rBCLA region array", "setting": "BCLA positive sera", "result": "stronger zones of reactivity"}
    ]},
    {"molecule": "KLRPLTKGELVDVVR (Synthetic peptide 30 of rBCLA)", "values": [
      {"measurement": "peptide reactivity (total reactivity score), rBCLA region array", "setting": "BCLA positive sera", "result": "stronger zones of reactivity"}
    ]},
    {"molecule": "QPAEAEEARLLVADL (Synthetic peptide 13 of rBCLA)", "values": [
      {"measurement": "peptide reactivity (total reactivity score), rBCLA region array", "setting": "BCLA positive sera", "result": "stronger zones of reactivity"}
    ]},
    {"molecule": "VHH ERB-1F2 (VHH, also called VH ERB-1F2; not shown: C-terminal FLAG and His-tag from vector pMEK222) VHH: EVQLVESGGGLVQVGGSLRLSCAASGRTFRRNTIGWFRQAPGKEREFVAAISWSGTRTKYADPVKGRFTISRDNDKNTAYLQMNTLKPDDTAVYYCAADGALYGSDVSGLARVYDYWGQGTQVTVSS", "values": [
      {"measurement": "binding result", "setting": "[1]", "result": "binds"}
    ]},
    {"molecule": "ERB-1F2: single domain antibody (VHH) selected on His rBCLA, SEQ ID NO: 61 (protein, Synthetic VHH ERB-1F2) VHH: EVQLVESGGGLVQVGGSLRLSCAASGRTFRRNTIGWFRQAPGKEREFVAAISWSGTRTKYADPVKGRFTISRDNDKNTAYLQMNTLKPDDTAVYYCAADGALYGSDVSGLARVYDYWGQGTQVTVSS", "values": [
      {"measurement": "apparent affinity to immobilized His rBCLA", "setting": "His rBCLA", "result": "low nanomolar"}
    ]},
    {"molecule": "VHH ERB-1G6 (VHH, also called VH ERB-1 G6; not shown: C-terminal FLAG and His-tag from vector pMEK222) VHH: EVQLVESGGGLVQAGGSLGLSCAASGRPGRIFTRNSMAWFRQAPGKEREFVASINWSGTSTSYADSVKGRFAISRDNDKNTVYLQMNSLKPEDTAVYYCAADSALYGSMHKTPADYEYWGQGTQVTVSS", "values": [
      {"measurement": "binding result", "setting": "[2]", "result": "binds"}
    ]},
    {"molecule": "ERB-1G6: single domain antibody (VHH) selected on His rBCLA, SEQ ID NO: 57 (protein, Synthetic VHH ERB-1G6) VHH: EVQLVESGGGLVQAGGSLGLSCAASGRPGRIFTRNSMAWFRQAPGKEREFVASINWSGTSTSYADSVKGRFAISRDNDKNTVYLQMNSLKPEDTAVYYCAADSALYGSMHKTPADYEYWGQGTQVTVSS", "values": [
      {"measurement": "apparent affinity to immobilized His rBCLA", "setting": "His rBCLA", "result": "subnanomolar; also recorded: very good"}
    ]},
    {"molecule": "VHH ERB-1H4 (VHH, also called VH ERB-1H4; not shown: C-terminal FLAG and His-tag from vector pMEK222) VHH: EVQLVESGGGLVQAGGSLRLSCVASGRTFSRYTVGWFRQAPGKEREFVAGISWSGSRTSYADSVKGRFTISRDNDKTTGYLQMNSLKPEDTAVYYCAAITKLYENNIPRSVSDYALWGQGTQVTVSS", "values": [
      {"measurement": "binding result", "setting": "[1]", "result": "binds"}
    ]},
    {"molecule": "ERB-1H4: single domain antibody (VHH) selected on His rBCLA, SEQ ID NO: 62 (protein, Synthetic VHH ERB-1H4) VHH: EVQLVESGGGLVQAGGSLRLSCVASGRTFSRYTVGWFRQAPGKEREFVAGISWSGSRTSYADSVKGRFTISRDNDKTTGYLQMNSLKPEDTAVYYCAAITKLYENNIPRSVSDYALWGQGTQVTVSS", "values": [
      {"measurement": "apparent affinity to immobilized His rBCLA", "setting": "His rBCLA", "result": "molar"}
    ]},
    {"molecule": "VHH ERB-1B11 (VHH, also called VH ERB-1 B11; not shown: C-terminal FLAG and His-tag from vector pMEK222) VHH: EVQLVESGGGLVQAGGSLRLTCAASGRTFRRSNMAWFRQPPGKERDFVAAIKWSGSSTNYADSVKGRFTISRDNDKNTVYLQMNVLKPEDTGVYYCAQESSLYSNYLPVVSSAYDYWGQGTQVTVSS", "values": [
      {"measurement": "binding result", "setting": "[3]", "result": "binds"}
    ]},
    {"molecule": "ERB-1B11: single domain antibody (VHH) selected on His rBCLA, SEQ ID NO: 58 (protein, Synthetic VHH ERB-1B11) VHH: EVQLVESGGGLVQAGGSLRLTCAASGRTFRRSNMAWFRQPPGKERDFVAAIKWSGSSTNYADSVKGRFTISRDNDKNTVYLQMNVLKPEDTGVYYCAQESSLYSNYLPVVSSAYDYWGQGTQVTVSS", "values": [
      {"measurement": "apparent affinity to immobilized His rBCLA", "setting": "His rBCLA", "result": "subnanomolar; also recorded: very good"}
    ]},
    {"molecule": "VHH ERB-1F1 (VHH, also called VH ERB-1F1; not shown: C-terminal FLAG and His-tag from vector pMEK222) VHH: EVQLVESGGGLVQAGDSLRLSCAASGRTFSRVTMGWFRQAPGKEREFVAGISWSGTRTDYPDSVKGRFTVSRDNAKKTMWLQMSSLRPEDTAVYHCAADSTLYGSAISNNREAYAYWGQGTQVTVSS", "values": [
      {"measurement": "binding result", "setting": "[1]", "result": "binds"}
    ]},
    {"molecule": "ERB-1F1: single domain antibody (VHH) selected on His rBCLA, SEQ ID NO: 60 (protein, Synthetic VHH ERB-1F1) VHH: EVQLVESGGGLVQAGDSLRLSCAASGRTFSRVTMGWFRQAPGKEREFVAGISWSGTRTDYPDSVKGRFTVSRDNAKKTMWLQMSSLRPEDTAVYHCAADSTLYGSAISNNREAYAYWGQGTQVTVSS", "values": [
      {"measurement": "apparent affinity to immobilized His rBCLA", "setting": "His rBCLA", "result": "low nanomolar"}
    ]},
    {"molecule": "VHH ERB-1A12 (VHH, also called VH ERB-1A12; not shown: C-terminal FLAG and His-tag from vector pMEK222) VHH: EVQLVESGGGLVQAGGSLRLSCAASGRTFSRYFMGWFRQAPGKEREFVAGIIWSGTRTYYVDSVKGRFTISRDNDKRMVYLQMNSLKPEDTAVYYCAAYKEYYGTPAQLYAAASYDYWGQGTQVTVSS", "values": [
      {"measurement": "binding result", "setting": "[4]", "result": "binds"}
    ]},
    {"molecule": "ERB-1A12: single domain antibody (VHH) selected on His rBCLA, SEQ ID NO: 59 (protein, Synthetic VHH ERB-1A12) VHH: EVQLVESGGGLVQAGGSLRLSCAASGRTFSRYFMGWFRQAPGKEREFVAGIIWSGTRTYYVDSVKGRFTISRDNDKRMVYLQMNSLKPEDTAVYYCAAYKEYYGTPAQLYAAASYDYWGQGTQVTVSS", "values": [
      {"measurement": "apparent affinity to immobilized His rBCLA", "setting": "His rBCLA", "result": "subnanomolar; also recorded: very good"}
    ]},
    {"molecule": "VHH ERB-1D7 (VHH, also called VH ERB-1D7; not shown: C-terminal FLAG and His-tag from vector pMEK222) VHH: KVQLVESGGGLVQAGGSLRLSCAASGRTFSRRGMGWFRQAPGKEREFVATIKWSGTSTDYADSVKGRFTISRDNAKNTVYLQMNNLQPEDTAVYYCAADRQLYRDGYVPLNEYEDWGQGTQVTVSS", "values": [
      {"measurement": "binding result", "setting": "[1]", "result": "binds"}
    ]},
    {"molecule": "ERB-1D7: single domain antibody (VHH) selected on His rBCLA, SEQ ID NO: 63 (protein, Synthetic VHH ERB-1D7) VHH: KVQLVESGGGLVQAGGSLRLSCAASGRTFSRRGMGWFRQAPGKEREFVATIKWSGTSTDYADSVKGRFTISRDNAKNTVYLQMNNLQPEDTAVYYCAADRQLYRDGYVPLNEYEDWGQGTQVTVSS", "values": [
      {"measurement": "apparent affinity to immobilized His rBCLA", "setting": "His rBCLA", "result": "molar"}
    ]}
  ]
}
